# Reference: publication PMC4155688, “Mapping the Putative G Protein-coupled Receptor (GPCR) Docking Site on GPCR Kinase 2” (The Journal of Biological Chemistry, 2014)
# Numbering of substitutions follows the chain as printed. Numbers in names are those of the source.
# B1: RlucII-GRK2 (wild type) (enzyme, human, UniProt P25098 1-689, looked up)
# chain: MADLEAVLADVSYLMAMEKSKATPAARASKKILLPEPSIRSVMQKYLEDRGEVTFEKIFSQKLGYLLFRDFCLNHLEEARPLVEFYEEIKKYEKLETEEERVARSREIFDSYIMKELLACSHPFSKSATEHVQGHLGKKQVPPDLFQPYIEEICQNLRGDVFQKFIESDKFTRFCQWKNVELNIHLTMNDFSVHRIIGRGGFGEVYGCRKADTGKMYAMKCLDKKRIKMKQGETLALNERIMLSLVSTGDCPFIVCMSYAFHTPDKLSFILDLMNGGDLHYHLSQHGVFSEADMRFYAAEIILGLEHMHNRFVVYRDLKPANILLDEHGHVRISDLGLACDFSKKKPHASVGTHGYMAPEVLQKGVAYDSSADWFSLGCMLFKLLRGHSPFRQHKTKDKHEIDRMTLTMAVELPDSFSPELRSLLEGLLQRDVNRRLGCLGRGAQEVKESPFFRSLDWQMVFLQKYPPPLIPPRGEVNAADAFDIGSFDEEDTKGIKLLDSDQELYRNFPLTISERWQQEVAETVFDTINAETDRLEARKKAKNKQLGHEEDYALGKDCIMHGYMSKMGNPFLTQWQRRYFYLFPNRLEWRGEGEAPQSLLTMEEIQSVEETQIKERKCLLLKIRGGKQFILQCDSDPELVQWKKELRDAYREAQQLVQRVPKMKNKPRSPVVELSKVPLVQRGSANGL
# notes: G protein-coupled receptor kinase 2 (GRK2), human; also called luciferase-GRK2; WT RlucII-GRK2; source: HEK293T, transfected, in living cells
# B2: RlucII-GRK2 V7E (enzyme, human, UniProt P25098 1-689, looked up)
# chain: B1 chain with V7E
# notes: GRK2, human; source: HEK293T, transfected, in living cells
# B3: RlucII-GRK2 V11A (enzyme, human, UniProt P25098 1-689, looked up)
# chain: B1 chain with V11A
# notes: as for B2
# B4: RlucII-GRK2 D317A (enzyme, human, UniProt P25098 1-689, looked up)
# chain: B1 chain with D317A
# notes: GRK2, human; catalytically inert mutant; source: HEK293T, transfected, in living cells
# B5: RlucII-GRK2 L8E (enzyme, human, UniProt P25098 1-689, looked up)
# chain: B1 chain with L8E
# notes: as for B2
# B6: RlucII-GRK2 Y13A (enzyme, human, UniProt P25098 1-689, looked up)
# chain: B1 chain with Y13A
# notes: as for B2
# B7: RlucII-GRK2 L4A (enzyme, human, UniProt P25098 1-689, looked up)
# chain: B1 chain with L4A
# notes: as for B2
# B8: RlucII-GRK2 R195A (enzyme, human, UniProt P25098 1-689, looked up)
# chain: B1 chain with R195A
# notes: as for B2
# B9: RlucII-GRK2 M17A (enzyme, human, UniProt P25098 1-689, looked up)
# chain: B1 chain with M17A
# notes: as for B2
# B10: RlucII-GRK2 V7P (enzyme, human, UniProt P25098 1-689, looked up)
# chain: B1 chain with V7P
# notes: as for B2
# B11: RlucII-GRK2 R587Q (enzyme, human, UniProt P25098 1-689, looked up)
# chain: B1 chain with R587Q
# notes: as for B2
# B12: RlucII-GRK2 V7E/L8E (enzyme, human, UniProt P25098 1-689, looked up)
# chain: B1 chain with V7E, L8E
# notes: as for B2
# B13: RlucII-GRK2 V477D (enzyme, human, UniProt P25098 1-689, looked up)
# chain: B1 chain with V477D
# notes: as for B2
# B14: RlucII-GRK2 A16V (enzyme, human, UniProt P25098 1-689, looked up)
# chain: B1 chain with A16V
# notes: as for B2
# B15: RlucII-GRK2 S12A (enzyme, human, UniProt P25098 1-689, looked up)
# chain: B1 chain with S12A
# notes: as for B2
# B16: RlucII-GRK2 V7A (enzyme, human, UniProt P25098 1-689, looked up)
# chain: B1 chain with V7A
# notes: as for B2
# Experiments:
# α2AAR-GFP^2 [1] = biological target: T1, α2AAR-GFP^2 (UniProt P08913 1-465); test: FRET or BRET; living HEK293T cells co-transfected with α2AAR-GFP^2 and RlucII-GRK2; dose-response to norepinephrine read 6 min after addition; NOR-promoted BRET fitted to biphasic (two-site) curves with a high-affinity and a low-affinity component; conditions: partners not purified
# T1 construct: α2A-adrenergic receptor; also called α2A-adrenergic receptor; source: HEK293T, transfected, in living cells; not shown: GFP^2, C-terminal (from the name α2AAR-GFP^2), kept
# T1 sequence (looked up): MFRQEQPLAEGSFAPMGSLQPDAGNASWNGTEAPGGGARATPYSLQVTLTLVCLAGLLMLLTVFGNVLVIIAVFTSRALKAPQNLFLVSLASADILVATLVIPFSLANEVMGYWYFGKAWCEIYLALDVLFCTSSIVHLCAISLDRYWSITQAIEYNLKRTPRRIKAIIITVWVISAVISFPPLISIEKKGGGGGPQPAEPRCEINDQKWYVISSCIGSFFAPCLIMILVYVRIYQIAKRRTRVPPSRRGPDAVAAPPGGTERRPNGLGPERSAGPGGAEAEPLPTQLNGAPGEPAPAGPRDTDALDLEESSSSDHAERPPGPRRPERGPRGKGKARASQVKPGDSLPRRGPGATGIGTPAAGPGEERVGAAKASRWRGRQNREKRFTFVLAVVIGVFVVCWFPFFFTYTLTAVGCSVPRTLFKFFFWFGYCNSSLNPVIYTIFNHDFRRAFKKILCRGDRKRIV
# α2AAR-GFP^2 [2] = biological target: T1, α2AAR-GFP^2; test: FRET or BRET; living HEK293T cells co-transfected with α2AAR-GFP^2 (acceptor) and RlucII-GRK2 (donor); in PBS at room temperature, with or without 100 μM norepinephrine (one-point and titration: 6 min; time course); coelenterazine 400A 5 μM; net or agonist-promoted BRET; conditions: partners not purified
binder,measurement,setting,value
B1,"EC50,L of norepinephrine (low-affinity component of the biphasic BRET curve)",α2AAR-GFP^2 [1],7.9 µM
B2,percent reduction of the agonist-promoted BRET relative to WT,α2AAR-GFP^2 [2],~55%
B3,percent reduction of the agonist-promoted BRET relative to WT,α2AAR-GFP^2 [2],~55%
B4,fold recruitment (agonist-promoted BRET) relative to WT,α2AAR-GFP^2 [2],2 fold
B5,percent reduction of the agonist-promoted BRET relative to WT,α2AAR-GFP^2 [2],~55%
B6,percent reduction of the low-affinity BRET component relative to WT,α2AAR-GFP^2 [1],~70%
same,percent reduction of the agonist-promoted BRET relative to WT,α2AAR-GFP^2 [2],~55%
B7,percent reduction of the low-affinity BRET component relative to WT,α2AAR-GFP^2 [1],~70%
same,percent reduction of the agonist-promoted BRET relative to WT,α2AAR-GFP^2 [2],~55%
B8,percent reduction of the low-affinity BRET component relative to WT,α2AAR-GFP^2 [1],~60%
same,percent reduction of the agonist-promoted BRET signal relative to WT,α2AAR-GFP^2 [2],60%
B9,percent reduction of the agonist-promoted BRET relative to WT,α2AAR-GFP^2 [2],~55%
B10,percent reduction of receptor recruitment (agonist-promoted BRET) relative to WT,α2AAR-GFP^2 [2],60%
B11,percent reduction of the NOR-promoted BRET signal relative to WT,α2AAR-GFP^2 [2],90%
B12,percent reduction of receptor recruitment (agonist-promoted BRET) relative to WT,α2AAR-GFP^2 [2],69%
B13,percent inhibition of the high-agonist concentration BRET signal relative to WT,α2AAR-GFP^2 [1],74%
B14,percent reduction of the agonist-promoted BRET relative to WT,α2AAR-GFP^2 [2],~55%
B15,fold stimulation of the low-affinity BRET component relative to WT,α2AAR-GFP^2 [1],2.6 fold
same,fold potentiation of the total agonist-induced BRET relative to WT,α2AAR-GFP^2 [2],2 fold
B16,percent reduction of the agonist-promoted BRET relative to WT,α2AAR-GFP^2 [2],~55%
